Laboratory results from publication PMC7177239, “Transitional States in Ligand-Dependent Transformation of the Aryl Hydrocarbon Receptor into Its DNA-Binding Form” (International Journal of Molecular Sciences, 2020).
Positions count from the first letter of the chain named. Values belong to the compound of their own block, whether it stands above or below them.

Experiments:
[1] = biological target: T1, aryl hydrocarbon receptor (AhR), wild type (Mus musculus, UniProt P30561); experiment: [3H]TCDD saturation binding, hydroxyapatite assay
T1 construct: wtAhR (mβAhR/pcDNA3), synthesized in vitro in rabbit reticulocyte lysate
T1 sequence (P30561 10-848): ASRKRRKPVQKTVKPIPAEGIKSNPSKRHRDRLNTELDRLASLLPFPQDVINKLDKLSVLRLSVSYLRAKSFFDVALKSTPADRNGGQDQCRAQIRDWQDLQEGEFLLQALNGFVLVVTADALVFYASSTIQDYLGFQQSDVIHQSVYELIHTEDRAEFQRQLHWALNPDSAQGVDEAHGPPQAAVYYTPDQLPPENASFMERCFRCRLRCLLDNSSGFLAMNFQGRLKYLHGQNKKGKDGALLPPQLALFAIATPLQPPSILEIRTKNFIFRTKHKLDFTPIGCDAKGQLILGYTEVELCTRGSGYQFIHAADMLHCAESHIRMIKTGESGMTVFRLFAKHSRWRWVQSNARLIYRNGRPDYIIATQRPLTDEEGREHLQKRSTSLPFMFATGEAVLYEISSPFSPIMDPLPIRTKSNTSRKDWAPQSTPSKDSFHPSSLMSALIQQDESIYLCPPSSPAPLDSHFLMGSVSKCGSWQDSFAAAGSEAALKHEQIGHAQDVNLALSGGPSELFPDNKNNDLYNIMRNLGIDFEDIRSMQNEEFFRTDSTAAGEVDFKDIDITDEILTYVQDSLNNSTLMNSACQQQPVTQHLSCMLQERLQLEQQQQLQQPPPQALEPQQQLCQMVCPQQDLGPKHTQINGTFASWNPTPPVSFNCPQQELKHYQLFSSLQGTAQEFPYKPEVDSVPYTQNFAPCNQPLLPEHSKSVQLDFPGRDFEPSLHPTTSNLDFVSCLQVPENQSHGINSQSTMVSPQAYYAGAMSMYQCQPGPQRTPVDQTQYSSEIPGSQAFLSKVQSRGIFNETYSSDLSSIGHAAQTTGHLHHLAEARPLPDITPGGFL

[2] = biological target: T2, aryl hydrocarbon receptor (AhR) (Mus musculus, UniProt P30561, D371A); experiment: [3H]TCDD saturation binding, hydroxyapatite assay
T2 construct: mutant of mβAhR/pcDNA3, synthesized in vitro in rabbit reticulocyte lysate
T2 sequence (P30561 10-848 D371A): T1 sequence (P30561 10-848) with D362A

[3] = biological target: heat shock protein 90 (rabbit (endogenous in reticulocyte lysate)) (UniProt P30946)
wtAhR;ARNT = experiment: EMSA; conditions: MEDG (25 mM MOPS pH 7.5, 1 mM EDTA, 1 mM DTT, 10% glycerol), 150 mM KCl (no added KCl for AhRdPASB and AhR/PASB-ARNT), AhR:ARNT:buffer 1:1:8, 10 nM TCDD or 1% …
AhRdPASB;ARNT = experiment: EMSA; conditions: MEDG (25 mM MOPS pH 7.5, 1 mM EDTA, 1 mM DTT, 10% glycerol), 150 mM KCl (no added KCl for AhRdPASB and AhR/PASB-ARNT), AhR:ARNT:buffer 1:1:8, 10 nM TCDD or 1% …
AhR/PASB-ARNT;ARNT = experiment: EMSA; conditions: MEDG (25 mM MOPS pH 7.5, 1 mM EDTA, 1 mM DTT, 10% glycerol), 150 mM KCl (no added KCl for AhRdPASB and AhR/PASB-ARNT), AhR:ARNT:buffer 1:1:8, 10 nM TCDD or 1% …
AhR A375V;ARNT = experiment: EMSA; conditions: MEDG (25 mM MOPS pH 7.5, 1 mM EDTA, 1 mM DTT, 10% glycerol), 150 mM KCl (no added KCl for AhRdPASB and AhR/PASB-ARNT), AhR:ARNT:buffer 1:1:8, 10 nM TCDD or 1% …
AhR R217A;ARNT = experiment: EMSA; conditions: MEDG (25 mM MOPS pH 7.5, 1 mM EDTA, 1 mM DTT, 10% glycerol), 150 mM KCl (no added KCl for AhRdPASB and AhR/PASB-ARNT), AhR:ARNT:buffer 1:1:8, 10 nM TCDD or 1% …
AhR D371A;ARNT = experiment: EMSA; conditions: MEDG (25 mM MOPS pH 7.5, 1 mM EDTA, 1 mM DTT, 10% glycerol), 150 mM KCl (no added KCl for AhRdPASB and AhR/PASB-ARNT), AhR:ARNT:buffer 1:1:8, 10 nM TCDD or 1% …
AhR F281A;ARNT = experiment: EMSA; conditions: MEDG (25 mM MOPS pH 7.5, 1 mM EDTA, 1 mM DTT, 10% glycerol), 150 mM KCl (no added KCl for AhRdPASB and AhR/PASB-ARNT), AhR:ARNT:buffer 1:1:8, 10 nM TCDD or 1% …

Sequence of wild type aryl hydrocarbon receptor (mouse) (P30561 whole entry): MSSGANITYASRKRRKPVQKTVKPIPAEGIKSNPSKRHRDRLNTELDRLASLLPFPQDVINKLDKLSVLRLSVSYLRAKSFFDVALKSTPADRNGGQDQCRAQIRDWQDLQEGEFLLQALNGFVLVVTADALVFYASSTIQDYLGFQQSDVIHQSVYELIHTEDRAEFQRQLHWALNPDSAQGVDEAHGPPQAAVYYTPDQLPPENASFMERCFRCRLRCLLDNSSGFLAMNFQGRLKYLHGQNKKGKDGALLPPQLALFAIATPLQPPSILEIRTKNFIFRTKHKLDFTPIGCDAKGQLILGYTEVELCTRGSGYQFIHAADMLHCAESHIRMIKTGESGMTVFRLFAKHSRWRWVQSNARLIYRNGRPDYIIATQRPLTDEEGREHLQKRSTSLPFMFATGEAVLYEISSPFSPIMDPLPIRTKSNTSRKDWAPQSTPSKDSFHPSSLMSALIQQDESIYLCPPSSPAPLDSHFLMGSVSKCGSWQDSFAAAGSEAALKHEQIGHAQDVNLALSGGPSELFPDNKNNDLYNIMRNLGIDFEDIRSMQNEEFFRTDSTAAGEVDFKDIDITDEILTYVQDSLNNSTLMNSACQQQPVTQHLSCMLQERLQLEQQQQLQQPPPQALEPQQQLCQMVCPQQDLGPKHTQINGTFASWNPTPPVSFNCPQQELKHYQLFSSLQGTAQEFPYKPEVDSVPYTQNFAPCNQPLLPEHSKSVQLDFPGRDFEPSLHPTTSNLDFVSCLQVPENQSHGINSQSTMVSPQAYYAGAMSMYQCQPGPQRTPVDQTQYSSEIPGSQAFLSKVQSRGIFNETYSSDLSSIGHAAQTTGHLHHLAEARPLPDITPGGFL
Sequence of AhRdPASB (P30561 whole entry): as above

Compound: Clc1cc2c(cc1Cl)Oc1cc(Cl)c(Cl)cc1O2 [TCDD, 2,3,7,8-tetrachlorodibenzo-p-dioxin]
Kd [1]: 4.6 ± 0.3 nM
Kd [2]: 5 ± 0.4 nM

percent inhibition by 20 mM sodium molybdate of constitutive AhR transformation/DNA binding in vitro (gel retardation) [3]: 5%
Compound: AhR F281A (from UniProt P30561 1-848) (natural protein)

percent inhibition by sodium molybdate of constitutive AhR transformation/DNA binding in vitro (gel retardation) [3]: 9.1%
Compound: AhR/PASB-ARNT

percent inhibition by sodium molybdate of constitutive AhR transformation/DNA binding in vitro (gel retardation) [3]: 4.3%
Compound: AhRdPASB (from UniProt P30561 1-848) (natural protein)

Compound: DRE3
binding signal (% DNA binding (reference)) (wtAhR;ARNT): 100
binding signal (% inhibition by molybdate) (wtAhR;ARNT): 69.6
binding signal (% inhibition by molybdate) (AhRdPASB;ARNT): 4.3
binding signal (% inhibition by molybdate) (AhR/PASB-ARNT;ARNT): 9.1
binding signal (% of wt DNA binding) (AhR A375V;ARNT): 55
binding signal (% inhibition by molybdate) (AhR R217A;ARNT): 67.1
binding signal (% inhibition by molybdate) (AhR D371A;ARNT): 61.7
binding signal (% inhibition by molybdate) (AhR F281A;ARNT): 5

percent inhibition by sodium molybdate (up to 20 mM) of TCDD-dependent AhR transformation/DNA binding in vitro (gel retardation) [3]: 69.6%
Compound: wild type aryl hydrocarbon receptor (mouse) (from UniProt P30561 1-848) (natural protein)
